Data on 3 substances can be found in doi:10.1101/2025.08.26.672322.

Experiment [1] concerns the target Gephyrin Δ199-233. The experiment in a line: ITC.
For experiment [2], the target named is Gephyrin P1 wt. Kind of experiment: ITC.
For experiment [3], the target named is LSβ, fusion protein of lumazine synthase and GlyR β-subunit ICD (pentameric GlyR model). The experiment in a line: co-sedimentation.
Experiment [4] addresses Gephyrin Δ199-233. The experiment in a line: SEC.
In experiment [5] the target is Gephyrin P1 wt. The experiment in a line: SEC.

In the experiment with Gephyrin Δ199-233 [1], “GlyR β-subunit ICD peptide (domain or fragment)” displayed a KD high-affinity site of 50 nM and a KD low-affinity site of 1540 nM. In the experiment with Gephyrin P1 wt [2], this substance gave a KD high-affinity site of 63 nM and a KD low-affinity site of 1830 nM.
Gephyrin Δ199-233 (natural protein) showed a gephyrin in the pelleted fraction, fold of wt in experiment [3] of 2 fold. In the experiment with Gephyrin Δ199-233 [4], this substance gave a stoichiometry N of 3.
Gephyrin P1 wt (natural protein) returned a stoichiometry N in the experiment with Gephyrin P1 wt [5] of 3.
